# In patent publication US20050182242A1, “Global analysis of protein activities using proteome chips” (priority 2001, published 2005):
# Experiments:
# Type in all cases: binding
# total yeast genomic DNA = experiment: Yeast proteome chip probed with labeled genomic DNA; conditions: Cy3-labeled genomic DNA, visual inspection
# Excerpt: (§1) Protein-DNA and protein-RNA interactions are important for many fundamental biological functions such as transcription regulation, chromosome segregation and maintenance, and RNA transport and processing (Williamson, 2000, Nat. Struct. Biol. 7(10):834-7). To explore the possibility of using a proteome chip to identify proteins that bind to DNA or RNA molecules, total yeast genomic DNA was labeled using Cy3-CTP and Klenow fragment, and polyA^+ was labeled using a biotinylated psoralen-derivative (31). Each probe was incubated with a different proteome chip (FIG. 3A).
# (§2) The protein-nucleic acid interaction was assayed as follows. The nucleic acid robes were labeled as described by Winzeler et al. (1999, Science 285:901). Blocked proteome chips were washed three to five times in PBS buffer, and the extra liquid on the glass surface was removed by tapping the slides vertically on a KIMWIPE™. 200 μl of labeled nuclei acid probe ([…] poly(dC/dG); 100-300 mM NaCl; 50-300 mM HEPES, pH 7.0-8.5; 10 mM MgCl2) was added to the proteome chip and immediately covered by a hydrophobic plastic cover slip (GRACE BIO-LABS™, USA). After trapped air bubbles were removed, the chip was incubated in a humidity chamber in the dark at room temperature (“RT”) for one hour. To remove the cover slip, the chip was immersed into large volume of PBS buffer(>50 ml), so that the slip would float away. The chip was then moved to a second PBS bath (>50 ml) and washed 3×5 min with shaking in the dark at RT. To completely remove the liquid on the chip, the chip was spun to dryness at 1500-2000 rpm for 5-10 min at RT.
# RNA-polyA+ = experiment: Yeast proteome chip probed with biotin-labeled polyA+ RNA; conditions: Cy3-streptavidin
# Excerpt: as §1, §2
# RNA-polyA^+ from exponentially growing cells was labeled with biotin and used to probe the proteome microarray. The positive signals were detected using Cy3-streptavidin. […] In addition to proteins that likely directly or indirectly interact with RNA, we found two transcription factors (Bur6p and Tos8p), one transcriptional silencer (Hst3p), six other proteins encoded by known ORFs, and seven proteins from uncharacterized ORFs.
# calmodulin = molecular target: T1, calmodulin (Homo sapiens, UniProt P0DP23); experiment: Yeast proteome chip probed with biotinylated calmodulin; conditions: biotinylated calmodulin in the presence of calcium
# T1 construct: purchased CalBiochem, USA
# Excerpt: To test for protein-protein interactions, the yeast proteome was probed with calmodulin (11). Calmodulin is a highly conserved calcium-binding protein involved in many calcium-regulated cellular processes and has many known physical partners (Hook et al., 2001, Annu. Rev. Pharmacol. Toxicol. 41:471). The calmodulin probe was biotinylated, and bound probe was detected using Cy3-labeled streptavidin. As a control, the yeast proteome was probed with Cy3-labeled streptavidin alone.
# Generally, protein-protein interactions can be assayed as follows. Blocked proteome chips are washed three to five times in PBS buffer, and the extra liquid on the glass surface is removed by tapping the slides vertically on a KIMWIPE™. 200 ∞l of biotinylated protein probe is added to the proteome chip and immediately covered by a hydrophobic plastic cover slip (GRACE BIO-LABS™, USA). After trapped air bubbles are removed, the chip is incubated in a humidity chamber at room temperature (RT) for one hour. To remove the cover slip, the chip is immersed into large volume of PBS buffer (>50 ml), and the slip should float away. The chip is then moved to a second PBS bath (>50 ml) and washed 3×5 min with shaking at RT. After removing extra liquid on the surface of the chip, at least 150 μl of Cy3- or Cy5-conjugated streptavidin (PIERCE™, USA; 1:2000 to 1:4000 dilution) is added to the surface and covered by a hydrophobic plastic cover slip (GRACE BIO-LABS™, USA). The chip is incubated for greater than 30 min in the dark at RT. The chip is then washed as described above. To completely remove the liquid on the chip, the chip is spun to dryness at 1500-2000 rpm for 5-10 min at RT.
# • 1. S. Fields, Y. Kohara, D. J. Lockhart, Proc. Natl. Acad. Sci. 96, 8825 (1999); A. Goffeau et al., Science 274, 563 (1996). • 2 P. Ross-Macdonald et al., Nature 402, 413 (1999); J. L., DeRisi, V. R. Iyer, P. O. Brown, Science 278, 680 (1997); E. A. Winzeler et al., Science 285, 901 (1999). P. Uetz et al., Nature 403, 623 (2000); T. Ito et al., Proc. Natl. Acad. Sci. USA. 97, 1143 (2000) • 3 H. Zhu, M. Snyder, Curr. Opin. Chem. Biol. 5, 40 (2001). • 4 M. R. Martzen et al., Science 286, 1153 (1999). • 5 H. Zhu et al., Nat. Genet. 26, 283 (2000). • 6 G. MacBeath, S. L. Schreiber, Science 289, 1760 (2000). • 7 A. Caveman, J. Cell Sci. 113, 3543 (2000). • 8 P. Arenkov et al., Anal. Biochem 278, 123 (2000). • 9 D. A. Mitchell, T. K. Marshall, R. J. Deschenes, Yeast 9, 715 (1993). The expression vector pEGH was created by inserting an RGS-HisX6 epitope tag between the GST gene and the polycloning site of pEG(KG). The yeast ORFs were cloned using the strategy described previously (5), except every step was done in a 96-well format. Plasmid DNAs confirmed by DNA sequencing were reintroduced into both yeast (Y258) and E. coli (DH5a). […] 0.1 mM calcium was present in buffers in all subsequent steps. The chip was washed three times with PBS at RT. Cy3-conjugated streptavidin (Jackson IR, USA) (1:5000 dilution) was added to the chip and incubated for 30 min at RT. After extensive washing, the chip was spun dry and scanned using a microarray scanner; the data was subsequently acquired with the GENEPIX™ array densitometry software (Axon, USA). • 12 S. S. Hook, A. R. Means, Annu. Rev. […]
Molecule,binding of genomic DNA probe (total yeast genomic DNA),binding of polyA+ RNA probe (RNA-polyA+),calmodulin binding (calmodulin)
"Bur6p: alpha-subunit of the NC2 (Dr1/Drap1) repressor of class II transcription (protein, UniProt P40096 1-142, looked up) Negative cofactor 2 complex …: MADQVPVTTQLPPIKPEHEVPLDAGGSPVGNMGTNSNNNNELGDVFDRIKTHFPPAKVKKIMQTDEDIGKVSQATPVIAGRSLEFFIALLVKKSGEMARGQGTKRITAEILKKTILNDEKFDFLREGLCVEEGQTQPEEESA",identified,bound both the DNA and RNA probes,
"Tos8p: yeast transcription factor suggested to be involved in RNA splicing and processing (protein, UniProt P53147 1-276, looked up) Homeobox protein TOS8: MGTSIVNLNQKIELPPIQVLFESLNRENETKPHFEERRLYQPNPSFVPRTNIAVGSPVNPVPVSSPVFFIGPSPQRSIQNHNAIMTQNIRQYPVIYNNNREVISTGERNYIITVGGPPVTSSQPEYEHISTPNFYQEQRLAQPHPVNESMMIGGYTNPQPISISRGKMLSGNISTNSVRGSNNGYSAKEKKHKAHGKRSNLPKATVSILNKWLHEHVNNPYPTVQEKRELLAKTGLTKLQISNWFINARRRKIFSGQNDANNFRRKFSSSTNLAKF",,identified,
"Dst1p: yeast protein with a role in transcription elongation (protein, UniProt P07273 1-309, looked up) Transcription elongation …: MDSKEVLVHVKNLEKNKSNDAAVLEILHVLDKEFVPTEKLLRETKVGVEVNKFKKSTNVEISKLVKKMISSWKDAINKNKRSRQAQQHHQDHAPGNAEDKTTVGESVNGVQQPASSQSDAMKQDKYVSTKPRNSKNDGVDTAIYHHKLRDQVLKALYDVLAKESEHPPQSILHTAKAIESEMNKVNNCDTNEAAYKARYRIIYSNVISKNNPDLKHKIANGDITPEFLATCDAKDLAPAPLKQKIEEIAKQNLYNAQGATIERSVTDRFTCGKCKEKKVSYYQLQTRSADEPLTTFCTCEACGNRWKFS",,,identified
"Hst3p: transcriptional silencer (protein, UniProt P53687 1-447, looked up) NAD-dependent histone …: MTSVSPSPPASRSGSMCSDLPSSLQTEKLAHIIGLDADDEVLRRVTKQLSRSRRIACLTGAGISCNAGIPDFRSSDGLYDLVKKDCSQYWSIKSGREMFDISLFRDDFKISIFAKFMERLYSNVQLAKPTKTHKFIAHLKDRNKLLRCYTQNIDGLEESIGLTLSNRKLPLTSFSSHWKNLDVVQLHGDLKTLSCTKCFQTFPWSRYWSRCLRRGELPLCPDCEALINKRLNEGKRTLGSNVGILRPNIVLYGENHPSCEIITQGLNLDIIKGNPDFLIIMGTSLKVDGVKQLVKKLSKKIHDRGGLIILVNKTPIGESSWHGIIDYQIHSDCDNWVTFLESQIPDFFKTQDQIKKLRQLKREASDLRKQMKAQKDSIGTPPTTPLRTAQGIDIQGNNELNTKIKSLNTVKRKILSPENSSEEDEEENLDTRKRAKIRPTFGDNQAS",,identified,
"Smd1p: U1 snRNP component (protein, UniProt Q02260 1-146, looked up) Small nuclear …: MKLVNFLKKLRNEQVTIELKNGTTVWGTLQSVSPQMNAILTDVKLTLPQPRLNKLNSNGIAMASLYLTGGQQPTASDNIASLQYINIRGNTIRQIILPDSLNLDSLLVDQKQLNSLRRSGQIANDPSKKRRRDFGAPANKRPRRGL",,identified,
